For two substances, decrease in signal against unmodified H3 results are on record in article PMC3518043.

For this test, the target named is Histone H3 N-terminal peptide trimethylated at lysine-4 (celluspot peptide #1). Nature of the test: peptide or protein array.

Chain of GST-tagged CHD5 PHD2 finger (413-468) (Q8TDI0 413-468): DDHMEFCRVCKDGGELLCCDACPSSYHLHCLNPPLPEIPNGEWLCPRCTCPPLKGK
Chain of GST-tagged CHD5 PHD1 finger (338-393) (Q8TDI0 338-393): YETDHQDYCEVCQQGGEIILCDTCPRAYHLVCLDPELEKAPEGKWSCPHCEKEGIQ

“GST-tagged CHD5 PHD2 finger (413-468) (from UniProt Q8TDI0 413-468) (domain or fragment)” displayed a decrease in signal against unmodified H3 greater than 90%.

Substance “GST-tagged CHD5 PHD1 finger (338-393) (from UniProt Q8TDI0 338-393) (domain or fragment)” came in with a decrease in signal against unmodified H3 greater than 90%.
